Results as given in paper PMC7614532 (Cell, 2023).

Target: N-terminally SNAP-tagged human β2AR (SNAP-β2AR) (human, UniProt P07550 1-413)
Assay: single-molecule co-localisation

average interaction time: ~1 s
B1: bovine βArr2 tagged C-terminally with Halo (βArr2-Halo) (natural protein)
chain: MGEKPGTRVFKKSSPNCKLTVYLGKRDFVDHLDKVDPVDGVVLVDPDYLKDRKVFVTLTCAFRYGREDLDVLGLSFRKDLFIANYQAFPPTPNPPRPPTRLQERLLRKLGQHAHPFFFTIPQNLPCSVTLQPGPEDTGKACGVDFEIRAFCAKSLEEKSHKRNSVRLVIRKVQFAPEKPGPQPSAETTRHFLMSDRSLHLEASLDKELYYHGEPLNVNVHVTNNSTKTVKKIKVSVRQYADICLFSTAQYKCPVAQVEQDDQVSPSSTFCKVYTITPLLSNNREKRGLALDGKLKHEDTNLASSTIVKEGANKEVLGILVSYRVKVKLVVSRGGDVSVELPFVLMHPKPHDHIALPRPQSAAPETDAPVDTNLIEFETNYATDDDIVFEDFARLRLKGLKDEDYDDQFC
